Measurements: patent US20220204583A1 (WISCONSIN ALUMNI RESEARCH FOUNDATION, published 2022)
Numbering of substitutions follows the chain as printed.

B1: VLR-Fc-46 (Fc fusion)
chain: ACPSQCSCSGTTVDCSGKSLASVPTGIPTTTRWLHLHRNQLTKLEPGVFDSLTQLTYLNLGGNQLTALPVGVFDKLTNLKELKLYSNQLQALSEGLFDRLGKLQHLDLSKNQLKSIPHGAFDRLSSLTHAYLFGNPWDCECRDIMYLRNWVADHTSIVMRWDGKAVNDPDSAKCAGTNTPVRAVTEASTSPSKCPGYVAT
notes: Dimeric recombinant VLR-rabbit IgG-Fc fusion secreted from HEK293F cells; also called VLR 46; VLR46; not shown: rabbit IgG-Fc from vector pIRES-VLR-Fc, C-terminal of the VLR
B2: VLR-Fc-11 (Fc fusion)
chain: B1 chain with T12E, D14R, S16E, G17S, K18R, T25A, W33R
notes: Dimeric recombinant VLR-rabbit IgG-Fc fusion secreted from HEK293F cells; also called VLR 11; VLR11; not shown: rabbit IgG-Fc from vector pIRES-VLR-Fc, C-terminal of the VLR
B3: VLR-Fc-30 (Fc fusion)
chain: B1 chain with R32Q, W33I, H35R, H37Y, L41I
notes: Dimeric recombinant VLR-rabbit IgG-Fc fusion secreted from HEK293F cells; also called VLR 30; VLR30; not shown: rabbit IgG-Fc from vector pIRES-VLR-Fc, C-terminal of the VLR

Experiments:
Assay in all cases: competition of live bEnd.3 (MBEC) cell surface binding by excess recombinant receptor ectodomain
[1] = biological target: T1, recombinant insulin receptor ectodomain (UniProt P15208 28-946, limits assumed)
T1 construct: extracellular domain; Bought; The chain make-up (alpha/beta) is not described; also called rIR; IR
T1 sequence (P15208 28-946 limits assumed): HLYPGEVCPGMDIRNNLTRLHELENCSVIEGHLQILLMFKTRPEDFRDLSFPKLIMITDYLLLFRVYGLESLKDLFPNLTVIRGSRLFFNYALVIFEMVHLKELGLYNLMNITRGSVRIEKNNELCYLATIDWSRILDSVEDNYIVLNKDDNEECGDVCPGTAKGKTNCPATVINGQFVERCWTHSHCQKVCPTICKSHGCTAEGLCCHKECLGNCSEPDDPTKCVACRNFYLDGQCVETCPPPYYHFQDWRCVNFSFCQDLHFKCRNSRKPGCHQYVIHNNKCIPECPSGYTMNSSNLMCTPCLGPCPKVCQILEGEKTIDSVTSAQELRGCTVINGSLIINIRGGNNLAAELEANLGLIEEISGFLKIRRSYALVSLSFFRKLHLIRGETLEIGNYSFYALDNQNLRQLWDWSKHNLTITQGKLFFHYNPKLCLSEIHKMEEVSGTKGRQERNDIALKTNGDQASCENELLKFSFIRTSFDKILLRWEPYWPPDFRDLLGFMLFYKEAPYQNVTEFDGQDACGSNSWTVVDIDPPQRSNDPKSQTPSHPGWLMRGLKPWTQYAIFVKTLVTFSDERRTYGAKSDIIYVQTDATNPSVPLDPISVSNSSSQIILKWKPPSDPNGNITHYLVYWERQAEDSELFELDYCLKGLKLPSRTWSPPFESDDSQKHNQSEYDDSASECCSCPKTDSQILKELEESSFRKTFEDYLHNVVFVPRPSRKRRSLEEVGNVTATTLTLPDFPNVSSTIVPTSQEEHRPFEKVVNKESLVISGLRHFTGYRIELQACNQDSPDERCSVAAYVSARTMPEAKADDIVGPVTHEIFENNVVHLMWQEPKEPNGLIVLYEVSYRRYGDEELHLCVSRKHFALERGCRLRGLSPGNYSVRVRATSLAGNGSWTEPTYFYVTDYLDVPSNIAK
Procedure: (§1) Competition assay. 2 μM recombinant receptor ecto-domain proteins, rIR (R&D systems, 7544-MR), rLDLR (R&D systems, 2255-LD), and rTfR (Sino Biologics, 50741-M07H) were incubated with 200 nM VLR-Fc proteins in serum-free complete growth media for 30 minutes and then applied to serum-starved bEnd.3 cells in 96-well plates to allow for VLR-Fc binding to cell surface receptors. Plates were incubated at 4° C. for 2 hours. After extensive washing with ice cold PBS cells were fixed with 2% PFA, permeabilized, labeled with IRDye reagents, and analyzed as described above.

[2] = biological target: T2, recombinant low-density lipoprotein receptor ectodomain (UniProt P35951 22-790, limits assumed)
T2 construct: extracellular domain; Bought; also called rLDLR; LDLR
T2 sequence (P35951 22-790 limits assumed): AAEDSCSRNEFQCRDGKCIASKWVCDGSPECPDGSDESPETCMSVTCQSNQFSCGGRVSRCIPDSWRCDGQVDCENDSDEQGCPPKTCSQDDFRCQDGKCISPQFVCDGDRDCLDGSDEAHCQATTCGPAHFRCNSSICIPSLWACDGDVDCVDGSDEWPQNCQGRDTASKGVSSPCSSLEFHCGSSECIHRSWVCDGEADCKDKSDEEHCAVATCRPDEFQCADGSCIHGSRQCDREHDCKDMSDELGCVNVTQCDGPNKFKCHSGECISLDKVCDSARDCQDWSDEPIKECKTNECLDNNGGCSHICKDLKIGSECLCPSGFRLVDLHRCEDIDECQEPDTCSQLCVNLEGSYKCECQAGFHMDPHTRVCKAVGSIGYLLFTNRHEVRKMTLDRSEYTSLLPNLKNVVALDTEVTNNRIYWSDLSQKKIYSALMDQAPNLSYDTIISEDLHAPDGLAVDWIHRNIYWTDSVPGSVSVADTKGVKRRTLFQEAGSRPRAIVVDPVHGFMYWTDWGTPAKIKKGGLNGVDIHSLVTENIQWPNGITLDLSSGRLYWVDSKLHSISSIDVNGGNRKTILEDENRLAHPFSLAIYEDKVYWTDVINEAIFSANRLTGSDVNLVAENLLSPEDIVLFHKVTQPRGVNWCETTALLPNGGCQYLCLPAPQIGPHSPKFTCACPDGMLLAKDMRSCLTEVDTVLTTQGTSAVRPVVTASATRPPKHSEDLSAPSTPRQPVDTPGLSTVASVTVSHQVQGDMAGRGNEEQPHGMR
Procedure: as §1

[3] = biological target: T3, recombinant transferrin receptor ectodomain (UniProt Q62351 89-763, limits assumed)
T3 construct: extracellular domain; Bought; also called rTfR; TfR
T3 sequence (Q62351 89-763 limits assumed): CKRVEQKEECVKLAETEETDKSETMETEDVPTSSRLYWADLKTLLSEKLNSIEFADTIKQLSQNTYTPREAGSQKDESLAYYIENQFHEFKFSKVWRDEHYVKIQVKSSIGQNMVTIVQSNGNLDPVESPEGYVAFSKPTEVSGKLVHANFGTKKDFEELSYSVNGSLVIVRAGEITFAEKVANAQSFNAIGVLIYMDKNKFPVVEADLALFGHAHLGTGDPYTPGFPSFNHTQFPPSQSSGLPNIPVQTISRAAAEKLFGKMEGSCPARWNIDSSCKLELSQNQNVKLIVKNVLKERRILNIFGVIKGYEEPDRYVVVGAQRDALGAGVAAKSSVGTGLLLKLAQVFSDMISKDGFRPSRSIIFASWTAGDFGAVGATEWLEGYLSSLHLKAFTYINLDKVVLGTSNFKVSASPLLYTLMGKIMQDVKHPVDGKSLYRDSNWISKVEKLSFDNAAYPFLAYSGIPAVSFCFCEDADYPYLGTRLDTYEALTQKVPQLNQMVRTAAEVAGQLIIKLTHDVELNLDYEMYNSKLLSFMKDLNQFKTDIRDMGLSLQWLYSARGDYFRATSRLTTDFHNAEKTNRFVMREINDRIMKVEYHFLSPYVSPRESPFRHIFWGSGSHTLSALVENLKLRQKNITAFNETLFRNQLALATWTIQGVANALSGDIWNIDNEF
Procedure: as §1

| Binder | binding result [1] | binding result [2] | binding result [3] |
| --- | --- | --- | --- |
| B1 | no binding (tested: 2 µM receptor ectodomain, 200 nM VLR-Fc) | no binding (tested: 2 µM receptor ectodomain, 200 nM VLR-Fc) | no binding (tested: 2 µM receptor ectodomain, 200 nM VLR-Fc) |
| B2 | no binding (tested: 2 µM receptor ectodomain, 200 nM VLR-Fc) | no binding (tested: 2 µM receptor ectodomain, 200 nM VLR-Fc) | no binding (tested: 2 µM receptor ectodomain, 200 nM VLR-Fc) |
| B3 | no binding (tested: 2 µM receptor ectodomain, 200 nM VLR-Fc) | no binding (tested: 2 µM receptor ectodomain, 200 nM VLR-Fc) | no binding (tested: 2 µM receptor ectodomain, 200 nM VLR-Fc) |
